In the supplement of paper PMC10567573:

B1: TRAF3IP2 (parent)
chain: PRPPSNPPARGTLKTSNLPEELRK

Variants of: B1
Experiment: protein stability index of a GFP-peptide fusion (GPS, HEK-293T) (PSI 1-6); higher = more stable
Details: c terminus: a fixed tail appended
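Further: lentivirally expressed fusions sorted by FACS into six bins by GFP to DsRed ratio, PSI derived from sequencing read proportions per bin multiplied by bin number.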

Protein stability index, by site and new letter:
E21: H 3.94, M 3.06, A 4.6, N 4.6, T 4.46, I 4.29, L 4.26, Y 4.23, R 4.2, Q 5.04, G 4.36, P 3.62, D 4.71, K 4.26, F 3.73, S 3.97, C 4.19, W 3.69, V 3.74
T15: V 4.48, S 4.79, Y 4.64, W 3.67
L18: W 4.2, T 4.96, R 4.56, N 4.71, F 4.72, S 5.62, Q 5.08, M 4.5, H 4.8, V 5.06, Y 5.14, G 4.96, K 5.26, A 4.92, D 4.67, I 4.38
L22: T 5.4, P 5.15, F 4.24, Q 5.39, K 4.97, Y 4.47, N 4.93, I 4.56, S 4.96, A 4.55, W 4.25, C 5.65, D 5.22, G 4.15, H 5.11, V 3.16, R 4.82, M 4.75, E 5.61
E20: V 3.41, N 4.61, D 4.81, W 4, S 4.52, M 4.14, K 4.2, C 4.44, I 3.44, T 4.25, H 3.96, P 4.21, L 4.1, R 4.48, Q 4.67, Y 3.95, G 5.51, F 4.06, A 4.41
R23: N 5.2, I 4.39, A 4.7, Q 5.23, W 3.42, E 4.94, G 4.7, Y 4.47, L 4.19, P 5.21, D 4.9, K 4.92, S 5.16, F 3.92, H 4.7, T 4.77, M 4.31, C 4.64, V 4.13
K24: E 4.99, C 4.9, H 4.79, F 4.33, G 4.05, I 4.24, T 4.8, Q 4.66, D 5.14, N 4.87, M 4.26, V 4.53, A 4.86, P 3.9, L 4.31, S 4.7, R 4.75
N17: K 4.07, S 4.91, Y 4.77, F 4.42, E 5.13, I 4.55, T 4.21, D 5.09, M 4.8, G 4.82, L 4.49, H 4.58, V 3.94, A 5.05, W 3.51, P 5.08, C 4.29
S16: W 3.47, K 4.74, Q 4.48, H 4.33, V 4.17, M 4.7, Y 4.48, D 4.83, L 4.75, A 4.41, C 4.19, R 4.79, G 4.79, E 4.95, F 4.47, T 4.92, I 4.49, N 4.37
P19: K 4.59, Q 4.75, A 4.48, M 4.47, H 3.36, N 4.83, W 3.98, C 4.7, F 4.28, L 4.43, T 4.14, G 4.36, E 5.1, I 4, S 4.75, Y 3.54, R 4.14, V 4.09, D 4.89
